Source: article PMC11092803, “Heme allocation in eukaryotic cells relies on mitochondrial heme export through FLVCR1b to cytosolic GAPDH” (Research Square, 2024)

T1: Feline Leukemia Virus subgroup C Receptor 1b (FLVCR1b) (human (endogenous in HEK293T), UniProt Q9Y5Y0-2 1-279)
T1 construct: FLVCR1 isoform b, the mitochondrially targeted version of FLVCR1a that is missing the first six transmembrane helices; endogenous in human HEK293T cells, detected or precipitated with an anti-FLVCR antibody (Novus NB100-1481); The antibody is named as against human FLVCR / FLVCR1; also called Feline leukemia virus subgroup C receptor 1 isoform b; source: endogenous, HEK293T cells; endogenous, …
T1 sequence (looked up): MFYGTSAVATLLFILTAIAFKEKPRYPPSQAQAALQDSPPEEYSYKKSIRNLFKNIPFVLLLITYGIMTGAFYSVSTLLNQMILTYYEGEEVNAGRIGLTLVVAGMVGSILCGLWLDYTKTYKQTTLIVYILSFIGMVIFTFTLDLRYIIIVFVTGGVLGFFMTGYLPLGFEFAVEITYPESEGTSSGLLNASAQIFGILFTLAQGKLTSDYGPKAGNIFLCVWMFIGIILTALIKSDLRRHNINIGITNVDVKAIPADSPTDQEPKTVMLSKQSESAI

T2: FLVCR1b in isolated mouse mitochondria (mouse (endogenous in brain and liver …, UniProt B2RXV4-2 1-279))
T2 construct: Detected with the antibody named as against FLVCR1 (Novus NB100-1481); also called mitochondrial FLVCR1b; source: endogenous, mitochondria isolated from mouse brain and liver
T2 sequence (looked up): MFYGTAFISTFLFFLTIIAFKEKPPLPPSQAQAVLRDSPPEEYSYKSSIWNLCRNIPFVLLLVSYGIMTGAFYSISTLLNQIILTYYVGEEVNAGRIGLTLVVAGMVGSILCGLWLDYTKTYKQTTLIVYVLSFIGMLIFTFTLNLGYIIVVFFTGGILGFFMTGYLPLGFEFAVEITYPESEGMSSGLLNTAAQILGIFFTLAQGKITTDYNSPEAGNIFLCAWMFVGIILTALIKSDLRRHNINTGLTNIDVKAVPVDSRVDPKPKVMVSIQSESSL

B1: glyceraldehyde phosphate dehydrogenase (GAPDH) (natural protein)
chain: not shown
notes: Glyceraldehyde 3-phosphate dehydrogenase, endogenous in the human HEK293T cell line, detected with an anti-GAPDH antibody; In the experiments on isolated mouse mitochondria the GAPDH came with HEK293T cytosol, but mouse GAPDH that stayed on the mitochondria cannot be ruled out; also called Glyceraldehyde 3-phosphate dehydrogenase; source: endogenous, HEK293T cells; endogenous, solubilised HEK293T …
B2: H53A point mutant variant of HA-hGAPDH (natural protein)
chain: not shown
notes: human GAPDH with H53A, expressed from the H53A variant of pRK5-TC-hGAPDH-HA; also called H53A HA-GAPDH; HA-H53A; source: HEK293T, transfected (H53A variant of pRK5-TC-hGAPDH-HA), in cells; in solubilised mitochondria
B3: Transport and Golgi Organization 2 (TANGO2) protein (natural protein, human (endogenous in HEK293T), UniProt Q6ICL3 1-276, looked up)
chain: MCIIFFKFDPRPVSKNAYRLILAANRDEFYSRPSKLADFWGNNNEILSGLDMEEGKEGGTWLGISTRGKLAALTNYLQPQLDWQARGRGELVTHFLTTDVDSLSYLKKVSMEGHLYNGFNLIAADLSTAKGDVICYYGNRGEPDPIVLTPGTYGLSNALLETPWRKLCFGKQLFLEAVERSQALPKDVLIASLLDVLNNEEAQLPDPAIEDQGGEYVQPMLSKYAAVCVRCPGYGTRTNTIILVDADGHVTFTERSMMDKDLSHWETRTYEFTLQS
notes: TANGO2, endogenous in human HEK293T cells, detected with an anti-TANGO2 antibody (Invitrogen PA5-51818); also called Transport and Golgi organization 2 homolog; T2; source: endogenous, HEK293T cells

What was measured:
Settings in all cases: partners not purified
[1] = target: T1, Feline Leukemia Virus subgroup C …; test: proximity ligation; Duolink PLA on fixed, permeabilised heme-depleted HEK293T cells, pairs of primary antibodies to the endogenous proteins; 0, 15, 30, 45, 60 and 120 min after δ-ALA (1 mM) and ferric citrate (100 μM); also in cells with control siRNA or knock-down of TANGO2 or GAPDH; background = one primary antibody alone, set to 1.0
[2] = target: T2, FLVCR1b in isolated mouse mitochondria; test: proximity ligation; Duolink PLA on mitochondria from mouse brain and liver, before or after incubation with δ-ALA and mitochondria-free HEK293T cytosol (control or TANGO2 knock-down cells) at 37 °C, reisolated and placed on poly-D-lysine coverslips
[3] = target: T1, Feline Leukemia Virus subgroup C …; test: proximity ligation; Duolink PLA on HEK293T cells transfected with HA-tagged GAPDH wild type or H53A, antibodies to HA and FLVCR1; resting and at times after δ-ALA/Fe; background = one primary antibody alone
[4] = target: B1; test: proximity ligation; Duolink PLA on fixed, permeabilised heme-depleted HEK293T cells, pairs of primary antibodies to the endogenous proteins; 0, 15, 30, 45, 60 and 120 min after δ-ALA (1 mM) and ferric citrate (100 μM); also in cells with control siRNA or knock-down of TANGO2 or GAPDH; background = one primary antibody alone, set to 1.0

Binder: B1
- PLA signal over background, resting cells [1]: 2.5 fold over background
- fold increase of PLA signal 30 min after δ-ALA/Fe [1]: 18 fold
- fold increase of PLA signal after 30 min with δ-ALA and cytosol [2]: 4 fold

Binder: B2
- PLA signal over background, resting cells [3]: ~2 fold over background

Binder: B3
- PLA signal over background, resting cells [1]: 5 fold over background
- PLA signal over background [4]: 2.5 fold over background
